According to the supplement of paper PMC10065799, “High-throughput profiling of sequence recognition by tyrosine kinases and SH2 domains using bacterial peptide display” (eLife, 2023):
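Also: 11-residue human phosphosite peptides and single-mutation variants displayed on the E. coli surface, counted by deep sequencing, each peptide's frequency after selection divided by its frequency in the unselected input library; frequency after pTyr selection over input frequency; kinase dosed for 20-30% of maximal phosphorylation in three min.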

The sequences below were run against Hck (UniProt P08631) (assay: phosphorylation enrichment, bacterial display (enrichment ratio); higher = better substrate or ligand; peptides without Tyr show the background).
Hck, sequence (P08631 whole entry, looked up): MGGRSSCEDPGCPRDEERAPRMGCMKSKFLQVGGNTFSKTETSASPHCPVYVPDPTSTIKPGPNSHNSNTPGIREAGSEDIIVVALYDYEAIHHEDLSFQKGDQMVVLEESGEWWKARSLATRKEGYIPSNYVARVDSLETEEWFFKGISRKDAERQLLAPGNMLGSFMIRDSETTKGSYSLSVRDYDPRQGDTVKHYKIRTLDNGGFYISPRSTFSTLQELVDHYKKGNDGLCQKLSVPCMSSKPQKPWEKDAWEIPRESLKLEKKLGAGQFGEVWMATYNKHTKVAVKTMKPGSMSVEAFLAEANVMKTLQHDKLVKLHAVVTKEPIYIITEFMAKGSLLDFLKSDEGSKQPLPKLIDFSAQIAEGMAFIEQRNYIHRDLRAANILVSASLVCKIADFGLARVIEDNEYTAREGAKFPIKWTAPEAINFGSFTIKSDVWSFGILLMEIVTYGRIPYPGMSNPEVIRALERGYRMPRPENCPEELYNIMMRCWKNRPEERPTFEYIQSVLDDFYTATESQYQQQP
AFLLLYFNDTH [BMP15_Y235] gave a phosphorylation enrichment of 0.482. With FDAHNYHPLPV [OAT_Y55_G51D_YF] the phosphorylation enrichment was 1.1. RLQEDYDHSFF [ESD_Y258_G257D_YF] showed a phosphorylation enrichment of 0.869. SVTCTYSPAIN [TP53_Y126_L130I] gave a phosphorylation enrichment of 0.749. With CSRRLYQLTKL [AR_Y858_F857L] the phosphorylation enrichment was 0.858. In the case of PDMHSYVVRYN [GRIN2D_Y732_M733V], the phosphorylation enrichment is reported as 0.721. For RMETEYGPSVT [MXRA5_Y2717], the phosphorylation enrichment was 0.752. For LGRTRYQHVTG [MIPEP_Y510], the phosphorylation enrichment was 0.309. With LGRGKYSEVFE [CSNK2A1_Y50] the phosphorylation enrichment was 0.768. FFVVEYRDQKP [MUC17_Y4332_YF] gave a phosphorylation enrichment of 0.515. DWQQEYVLNES [TGM1_Y267_R264Q] was tested, and the phosphorylation enrichment was 0.6. For YKEQGYHRLPS [RIN1_Y681_P686S], the phosphorylation enrichment was 0.279. PSQRRYLFFFS [PTEN_Y174_V175L_YF] was tested, and the phosphorylation enrichment was 0.716. Sequence LSIQCYLRALD [HMGCS2_Y262] has a phosphorylation enrichment of 1.12. Sequence CTTIHYIFMCN [TP53_Y234_N235I_YF] has a phosphorylation enrichment of 0.331. Sequence GRDVIYKGFED [NFU1_Y194_G190R] has a phosphorylation enrichment of 0.96. ERLWDYGMSSS [F8_Y1728] gave a phosphorylation enrichment of 0.459. Sequence TARWEYMHSPS [CPOX_Y429] has a phosphorylation enrichment of 0.356. Work on HKGASYAFRLS [PTPRD_Y891_V892A] yielded a phosphorylation enrichment of 0.49. Work on PMDTFYDSTRG [DYNC2H1_Y2231_YF] yielded a phosphorylation enrichment of 1.71. With YRQNGYIPGSN [PCDHGA1_Y895_V894G] the phosphorylation enrichment was 0.405. GYRVCYTPDSR [PTPRF_Y451_Y450C] gave a phosphorylation enrichment of 0.547. SDVLSYGVTMW [ZAP70_Y525_W523L] gave a phosphorylation enrichment of 0.475. GHLYANDWISI [BEST1_Y227_Y227N] showed a phosphorylation enrichment of 0.575. TFRPPYYHRNC [HGD_Y333] was tested, and the phosphorylation enrichment was 0.524. NSIGNYFKPWF [DHCR24_Y299_YF] gave a phosphorylation enrichment of 0.492. With LHVGFYESDVM [A2M_Y708_R704H] the phosphorylation enrichment was 0.743. GSESDYIIMPN [SCARB1_Y133_V135I] was tested, and the phosphorylation enrichment was 0.526. In the case of PMQLPYDSRWE [PDGFRA_Y582], the phosphorylation enrichment is reported as 0.706. With GSSKIYFLHPD [TLR5_Y108] the phosphorylation enrichment was 1.21. With LDTFIYDAAVL [GRIN2A_Y730_A727T] the phosphorylation enrichment was 8.1. In the case of INNIDYYKNTT [FGFR2_Y656_K659N], the phosphorylation enrichment is reported as 0.462. VNFGAYINFFK [GLB1_Y488_D491Y_YF] gave a phosphorylation enrichment of 0.495.

These sequences were tested against Fyn (UniProt P06241) in the same assay as above.
Fyn, sequence (P06241 whole entry, looked up): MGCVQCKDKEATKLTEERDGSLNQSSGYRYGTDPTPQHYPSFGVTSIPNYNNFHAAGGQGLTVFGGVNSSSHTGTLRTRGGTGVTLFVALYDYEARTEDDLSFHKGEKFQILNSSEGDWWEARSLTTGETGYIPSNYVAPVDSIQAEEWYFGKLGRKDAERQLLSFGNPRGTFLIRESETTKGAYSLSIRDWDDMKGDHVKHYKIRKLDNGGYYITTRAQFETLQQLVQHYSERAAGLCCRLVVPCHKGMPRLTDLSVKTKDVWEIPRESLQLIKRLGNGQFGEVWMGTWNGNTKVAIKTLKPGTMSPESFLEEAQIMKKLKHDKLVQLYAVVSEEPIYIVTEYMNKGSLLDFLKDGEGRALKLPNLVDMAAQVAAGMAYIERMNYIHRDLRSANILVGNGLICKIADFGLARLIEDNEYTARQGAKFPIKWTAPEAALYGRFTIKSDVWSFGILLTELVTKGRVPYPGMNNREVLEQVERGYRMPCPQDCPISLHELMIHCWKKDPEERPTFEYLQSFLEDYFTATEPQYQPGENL
AFLLLYFNDTH [BMP15_Y235] showed a phosphorylation enrichment of 0.445. FDAHNYHPLPV [OAT_Y55_G51D_YF] was tested, and the phosphorylation enrichment was 0.501. RLQEDYDHSFF [ESD_Y258_G257D_YF] was tested, and the phosphorylation enrichment was 0.792. SVTCTYSPAIN [TP53_Y126_L130I] was tested, and the phosphorylation enrichment was 0.615. For CSRRLYQLTKL [AR_Y858_F857L], the phosphorylation enrichment was 0.621. PDMHSYVVRYN [GRIN2D_Y732_M733V] was tested, and the phosphorylation enrichment was 0.554. Work on RMETEYGPSVT [MXRA5_Y2717] yielded a phosphorylation enrichment of 0.823. In the case of LGRTRYQHVTG [MIPEP_Y510], the phosphorylation enrichment is reported as 0.488. With LGRGKYSEVFE [CSNK2A1_Y50] the phosphorylation enrichment was 1.19. Sequence FFVVEYRDQKP [MUC17_Y4332_YF] has a phosphorylation enrichment of 0.474. Work on DWQQEYVLNES [TGM1_Y267_R264Q] yielded a phosphorylation enrichment of 0.648. For YKEQGYHRLPS [RIN1_Y681_P686S], the phosphorylation enrichment was 0.366. PSQRRYLFFFS [PTEN_Y174_V175L_YF] gave a phosphorylation enrichment of 0.753. LSIQCYLRALD [HMGCS2_Y262] showed a phosphorylation enrichment of 0.825. With CTTIHYIFMCN [TP53_Y234_N235I_YF] the phosphorylation enrichment was 0.418. GRDVIYKGFED [NFU1_Y194_G190R] showed a phosphorylation enrichment of 2.94. In the case of ERLWDYGMSSS [F8_Y1728], the phosphorylation enrichment is reported as 0.415. TARWEYMHSPS [CPOX_Y429] gave a phosphorylation enrichment of 0.387. With HKGASYAFRLS [PTPRD_Y891_V892A] the phosphorylation enrichment was 0.838. With PMDTFYDSTRG [DYNC2H1_Y2231_YF] the phosphorylation enrichment was 0.982. For YRQNGYIPGSN [PCDHGA1_Y895_V894G], the phosphorylation enrichment was 0.384. For GYRVCYTPDSR [PTPRF_Y451_Y450C], the phosphorylation enrichment was 0.498. With SDVLSYGVTMW [ZAP70_Y525_W523L] the phosphorylation enrichment was 0.449. In the case of GHLYANDWISI [BEST1_Y227_Y227N], the phosphorylation enrichment is reported as 0.734. With TFRPPYYHRNC [HGD_Y333] the phosphorylation enrichment was 0.562. Sequence NSIGNYFKPWF [DHCR24_Y299_YF] has a phosphorylation enrichment of 0.45. LHVGFYESDVM [A2M_Y708_R704H] was tested, and the phosphorylation enrichment was 0.691. For GSESDYIIMPN [SCARB1_Y133_V135I], the phosphorylation enrichment was 0.456. PMQLPYDSRWE [PDGFRA_Y582] was tested, and the phosphorylation enrichment was 0.665. For GSSKIYFLHPD [TLR5_Y108], the phosphorylation enrichment was 1.84. For LDTFIYDAAVL [GRIN2A_Y730_A727T], the phosphorylation enrichment was 7.61. INNIDYYKNTT [FGFR2_Y656_K659N] gave a phosphorylation enrichment of 0.495. For VNFGAYINFFK [GLB1_Y488_D491Y_YF], the phosphorylation enrichment was 0.441.

What follows are sequences tested on Fer (mouse) in the same assay as above.
AFLLLYFNDTH [BMP15_Y235] showed a phosphorylation enrichment of 0.525. FDAHNYHPLPV [OAT_Y55_G51D_YF] was tested, and the phosphorylation enrichment was 1.13. Sequence RLQEDYDHSFF [ESD_Y258_G257D_YF] has a phosphorylation enrichment of 0.919. SVTCTYSPAIN [TP53_Y126_L130I] was tested, and the phosphorylation enrichment was 0.743. CSRRLYQLTKL [AR_Y858_F857L] was tested, and the phosphorylation enrichment was 0.499. PDMHSYVVRYN [GRIN2D_Y732_M733V] was tested, and the phosphorylation enrichment was 0.434. For RMETEYGPSVT [MXRA5_Y2717], the phosphorylation enrichment was 0.408. Sequence LGRTRYQHVTG [MIPEP_Y510] has a phosphorylation enrichment of 0.377. Work on LGRGKYSEVFE [CSNK2A1_Y50] yielded a phosphorylation enrichment of 0.478. FFVVEYRDQKP [MUC17_Y4332_YF] was tested, and the phosphorylation enrichment was 0.53. With DWQQEYVLNES [TGM1_Y267_R264Q] the phosphorylation enrichment was 0.434. For YKEQGYHRLPS [RIN1_Y681_P686S], the phosphorylation enrichment was 0.363. Work on PSQRRYLFFFS [PTEN_Y174_V175L_YF] yielded a phosphorylation enrichment of 0.531. LSIQCYLRALD [HMGCS2_Y262] was tested, and the phosphorylation enrichment was 0.822. Sequence CTTIHYIFMCN [TP53_Y234_N235I_YF] has a phosphorylation enrichment of 0.436. GRDVIYKGFED [NFU1_Y194_G190R] gave a phosphorylation enrichment of 0.426. For ERLWDYGMSSS [F8_Y1728], the phosphorylation enrichment was 0.483. TARWEYMHSPS [CPOX_Y429] gave a phosphorylation enrichment of 0.334. HKGASYAFRLS [PTPRD_Y891_V892A] gave a phosphorylation enrichment of 0.645. PMDTFYDSTRG [DYNC2H1_Y2231_YF] showed a phosphorylation enrichment of 1.43. For YRQNGYIPGSN [PCDHGA1_Y895_V894G], the phosphorylation enrichment was 0.423. In the case of GYRVCYTPDSR [PTPRF_Y451_Y450C], the phosphorylation enrichment is reported as 0.505. With SDVLSYGVTMW [ZAP70_Y525_W523L] the phosphorylation enrichment was 0.523. Sequence GHLYANDWISI [BEST1_Y227_Y227N] has a phosphorylation enrichment of 0.527. Sequence TFRPPYYHRNC [HGD_Y333] has a phosphorylation enrichment of 0.375. NSIGNYFKPWF [DHCR24_Y299_YF] showed a phosphorylation enrichment of 0.424. With LHVGFYESDVM [A2M_Y708_R704H] the phosphorylation enrichment was 1.9. In the case of GSESDYIIMPN [SCARB1_Y133_V135I], the phosphorylation enrichment is reported as 0.411. PMQLPYDSRWE [PDGFRA_Y582] showed a phosphorylation enrichment of 0.485. With GSSKIYFLHPD [TLR5_Y108] the phosphorylation enrichment was 0.403. LDTFIYDAAVL [GRIN2A_Y730_A727T] was tested, and the phosphorylation enrichment was 16.9. In the case of INNIDYYKNTT [FGFR2_Y656_K659N], the phosphorylation enrichment is reported as 0.359. With VNFGAYINFFK [GLB1_Y488_D491Y_YF] the phosphorylation enrichment was 0.624.

These sequences were tested against Fes (UniProt P07332) in the same assay as above.
Fes, sequence (P07332 whole entry, looked up): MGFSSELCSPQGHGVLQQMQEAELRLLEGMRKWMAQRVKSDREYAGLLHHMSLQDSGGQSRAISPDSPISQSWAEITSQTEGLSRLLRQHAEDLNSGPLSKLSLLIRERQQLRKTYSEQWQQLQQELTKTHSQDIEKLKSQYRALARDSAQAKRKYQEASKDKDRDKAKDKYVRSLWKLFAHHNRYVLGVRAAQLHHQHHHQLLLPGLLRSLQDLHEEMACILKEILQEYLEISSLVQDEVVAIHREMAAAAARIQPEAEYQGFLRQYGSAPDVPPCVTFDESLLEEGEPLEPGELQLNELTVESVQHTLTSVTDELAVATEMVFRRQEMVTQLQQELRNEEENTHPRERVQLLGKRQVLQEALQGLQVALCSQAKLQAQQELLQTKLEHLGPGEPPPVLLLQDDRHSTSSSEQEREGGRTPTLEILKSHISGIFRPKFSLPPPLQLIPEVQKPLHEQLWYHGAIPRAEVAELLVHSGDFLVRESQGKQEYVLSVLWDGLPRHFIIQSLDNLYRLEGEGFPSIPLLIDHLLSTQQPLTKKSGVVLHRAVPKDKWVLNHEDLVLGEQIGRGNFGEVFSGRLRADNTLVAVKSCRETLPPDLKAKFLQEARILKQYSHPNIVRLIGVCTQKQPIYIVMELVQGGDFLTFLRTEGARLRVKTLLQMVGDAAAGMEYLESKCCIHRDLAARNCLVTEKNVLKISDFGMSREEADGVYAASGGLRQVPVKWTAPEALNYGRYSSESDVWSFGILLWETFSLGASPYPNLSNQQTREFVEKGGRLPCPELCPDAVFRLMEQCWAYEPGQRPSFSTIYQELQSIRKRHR
Work on AFLLLYFNDTH [BMP15_Y235] yielded a phosphorylation enrichment of 1.41. FDAHNYHPLPV [OAT_Y55_G51D_YF] gave a phosphorylation enrichment of 0.734. RLQEDYDHSFF [ESD_Y258_G257D_YF] was tested, and the phosphorylation enrichment was 1.55. SVTCTYSPAIN [TP53_Y126_L130I] showed a phosphorylation enrichment of 1.83. CSRRLYQLTKL [AR_Y858_F857L] was tested, and the phosphorylation enrichment was 0.769. In the case of PDMHSYVVRYN [GRIN2D_Y732_M733V], the phosphorylation enrichment is reported as 1.13. RMETEYGPSVT [MXRA5_Y2717] showed a phosphorylation enrichment of 1.01. In the case of LGRTRYQHVTG [MIPEP_Y510], the phosphorylation enrichment is reported as 0.723. In the case of LGRGKYSEVFE [CSNK2A1_Y50], the phosphorylation enrichment is reported as 1.19. FFVVEYRDQKP [MUC17_Y4332_YF] was tested, and the phosphorylation enrichment was 1.27. DWQQEYVLNES [TGM1_Y267_R264Q] gave a phosphorylation enrichment of 1.45. Work on YKEQGYHRLPS [RIN1_Y681_P686S] yielded a phosphorylation enrichment of 0.508. PSQRRYLFFFS [PTEN_Y174_V175L_YF] was tested, and the phosphorylation enrichment was 1.93. LSIQCYLRALD [HMGCS2_Y262] gave a phosphorylation enrichment of 2.81. In the case of CTTIHYIFMCN [TP53_Y234_N235I_YF], the phosphorylation enrichment is reported as 1.05. GRDVIYKGFED [NFU1_Y194_G190R] showed a phosphorylation enrichment of 1. ERLWDYGMSSS [F8_Y1728] was tested, and the phosphorylation enrichment was 1.06. Work on TARWEYMHSPS [CPOX_Y429] yielded a phosphorylation enrichment of 2.01. Work on HKGASYAFRLS [PTPRD_Y891_V892A] yielded a phosphorylation enrichment of 0.962. PMDTFYDSTRG [DYNC2H1_Y2231_YF] showed a phosphorylation enrichment of 1.05. YRQNGYIPGSN [PCDHGA1_Y895_V894G] gave a phosphorylation enrichment of 0.547. GYRVCYTPDSR [PTPRF_Y451_Y450C] showed a phosphorylation enrichment of 1.26. Work on SDVLSYGVTMW [ZAP70_Y525_W523L] yielded a phosphorylation enrichment of 1.03. In the case of GHLYANDWISI [BEST1_Y227_Y227N], the phosphorylation enrichment is reported as 0.871. With TFRPPYYHRNC [HGD_Y333] the phosphorylation enrichment was 0.878. With NSIGNYFKPWF [DHCR24_Y299_YF] the phosphorylation enrichment was 0.99. LHVGFYESDVM [A2M_Y708_R704H] was tested, and the phosphorylation enrichment was 1.58. With GSESDYIIMPN [SCARB1_Y133_V135I] the phosphorylation enrichment was 0.826. PMQLPYDSRWE [PDGFRA_Y582] gave a phosphorylation enrichment of 0.854. In the case of GSSKIYFLHPD [TLR5_Y108], the phosphorylation enrichment is reported as 0.844. For LDTFIYDAAVL [GRIN2A_Y730_A727T], the phosphorylation enrichment was 1.65. INNIDYYKNTT [FGFR2_Y656_K659N] showed a phosphorylation enrichment of 0.708. For VNFGAYINFFK [GLB1_Y488_D491Y_YF], the phosphorylation enrichment was 1.75.
